Laboratory results taken from US20140087995A1 (published 2014).
One block for each binder: values may come before it. Numbered stars: 1 amine (or outer) side, 2 acyl side, 3 side chain; on linkers, the order of the positions; unused ones are H or OH. Bridge positions count the residues as written; N and C are the ends. Side chains are listed from the residue outwards. Ends that are not written are not given here. * marks the point of attachment. C20 diacid = O=C(O)CCCCCCCCCCCCCCCCCCC(=O)*; γGlu = O=C(O)[C@H](CCC(=O)[*:2])N[*:1]

How the values were obtained:
[1] = biological target: T1, human amylin 3(a) receptor (human calcitonin receptor co-expressed with RAMP-3) (human, UniProt P30988 25-474; O60896 24-148, limits assumed); experiment: SPA competition binding, membranes of Amylin 3(a)/CRE-luc BHK cells, displacement of 125I-rat amylin (Assay (V))
T1 construct: whole, on cells; Whole cells in the luciferase assay (Assay (II)a); also called hAmylin-R; hAmylinR
T1 sequence (looked up) 1: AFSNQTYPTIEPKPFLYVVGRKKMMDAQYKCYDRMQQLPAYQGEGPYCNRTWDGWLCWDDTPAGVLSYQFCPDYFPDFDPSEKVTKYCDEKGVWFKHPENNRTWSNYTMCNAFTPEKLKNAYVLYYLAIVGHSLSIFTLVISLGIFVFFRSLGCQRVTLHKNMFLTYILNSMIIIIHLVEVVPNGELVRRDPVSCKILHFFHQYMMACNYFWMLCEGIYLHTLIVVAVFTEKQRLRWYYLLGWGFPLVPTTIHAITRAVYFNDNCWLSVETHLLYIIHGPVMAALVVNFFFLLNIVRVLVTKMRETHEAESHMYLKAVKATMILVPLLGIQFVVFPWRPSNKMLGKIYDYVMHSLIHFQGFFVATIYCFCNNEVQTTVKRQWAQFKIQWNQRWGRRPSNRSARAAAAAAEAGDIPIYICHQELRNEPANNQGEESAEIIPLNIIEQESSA
T1 sequence (looked up) 2: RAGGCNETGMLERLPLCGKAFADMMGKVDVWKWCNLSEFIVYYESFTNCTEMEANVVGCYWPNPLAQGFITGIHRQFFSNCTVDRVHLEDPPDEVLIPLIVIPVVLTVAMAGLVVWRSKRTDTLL
Protocol: The binding assay was performed using scintillation proximity assay (SPA) beads (RPNQ0001) from PerkinElmer and cell membranes from the Amylin 3(a)/CRE-luc cells (as described in Assay (II)) were used. Membranes were prepared in the following way; the cells were rinsed with PBS and incubated with Versene for approximately 5 min before harvesting. The cells were flushed with PBS and the cell-suspension was centrifuged for 5 min at 1000 rpm. Cells were homogenized (ultrathurrax) in a buffer containing 20 mM Na-HEPES and 10 mM EDTA (pH 7.4) and centrifuged at 20.000 rpm for 15 min. The resulting pellet was resuspended, homogenized and centrifuged (20.000 rpm, 15 min) in a buffer containing 20 mM Na-HEPES and 0.1 mM EDTA (pH 7.4, buffer 2). The resulting pellet was resuspended in buffer 2 and protein concentration was measured (BCA protein Assay, Pierce). The homogenate was kept cold during the whole procedure. The membranes were kept at −80° C. until use. The assay was performed in a 384 well Optiplate (PerkinElmer) in a total volume of 40 ul. Membranes were mixed with SPA beads. Final concentration of membranes 35 ng/μL final and SPA beads was 0.05 mg/well. Test-compounds were dissolved in DMSO and further diluted in assay buffer (50 mM Hepes, pH 7.4, 1 mM CaCl2, 5 mM MgCl₂, 0.1% OA and 0.02% Tween20). […] The final mixture was incubated with shaking at 400 rpm for 120 min at 25° C. prior to centrifugation (1500 rpm, 10 min). Samples were analyzed on TopCounter™ (Packard). The IC₅₀ was calculated using (one site binding competition analysis) GraphPad Prism5 as a measure of receptor affinity.

[2] = biological target: T1, human amylin 3(a) receptor (human …); experiment: cell-based or functional assay
[3] = biological target: T2, human calcitonin receptor (human, UniProt P30988 25-474); experiment: cell-based or functional assay
T2 sequence (looked up): T1 sequence (looked up) 1

B1: N^ε1-[(4S)-4-carboxy-4-(19-carboxynonadecanoylamino)butanoyl]-[Glu14,Arg17,Pro21,Pro27,His34,Glu35]-h-amylin (peptide)
peptide: K([γGlu-C20 diacid])CNTATCATQRLAEFLRHSSPNFGAIPSSTNVGHETY-NH2
modifications: disulfide 2-7; N-terminus assumed
SMILES: CC[C@H](C)[C@H](NC(=O)[C@H](C)NC(=O)CNC(=O)[C@H](Cc1ccccc1)NC(=O)[C@H](CC(N)=O)NC(=O)[C@@H]1CCCN1C(=O)[C@H](CO)NC(=O)[C@H](CO)NC(=O)[C@H](Cc1c[nH]cn1)NC(=O)[C@H](CCCNC(=N)N)NC(=O)[C@H](CC(C)C)NC(=O)[C@H](Cc1ccccc1)NC(=O)[C@H](CCC(=O)O)NC(=O)[C@H](C)NC(=O)[C@H](CC(C)C)NC(=O)[C@H](CCCNC(=N)N)NC(=O)[C@H](CCC(N)=O)NC(=O)[C@@H](NC(=O)[C@H](C)NC(=O)[C@@H]1CSSC[C@H](NC(=O)[C@@H](N)CCCCNC(=O)CC[C@H](NC(=O)CCCCCCCCCCCCCCCCCCC(=O)O)C(=O)O)C(=O)N[C@@H](CC(N)=O)C(=O)N[C@@H]([C@@H](C)O)C(=O)N[C@@H](C)C(=O)N[C@@H]([C@@H](C)O)C(=O)N1)[C@@H](C)O)C(=O)N1CCC[C@H]1C(=O)N[C@@H](CO)C(=O)N[C@@H](CO)C(=O)N[C@H](C(=O)N[C@@H](CC(N)=O)C(=O)N[C@H](C(=O)NCC(=O)N[C@@H](Cc1c[nH]cn1)C(=O)N[C@@H](CCC(=O)O)C(=O)N[C@H](C(=O)N[C@@H](Cc1ccc(O)cc1)C(N)=O)[C@@H](C)O)C(C)C)[C@@H](C)O
notes: also called compound 107
IC50 [1]: 0.387 nM
hAmylin-R funct. EC50 [2]: 0.405 nM
Ratio hCT/hAmylin funct. [3]: 6.3
hCTR funct. EC50 [3]: 2.54 nM

B2: N^ε1-[(4S)-4-carboxy-4-[[(4S)-4-carboxy-4-(19-carboxynonadecanoylamino)butanoyl]amino]butanoyl]-[Glu14,Arg17,Pro21,Pro27,Arg34,Glu35]-h-amylin (peptide)
peptide: K([γGlu-γGlu-C20 diacid])CNTATCATQRLAEFLRHSSPNFGAIPSSTNVGRETY-NH2
modifications: disulfide 2-7; N-terminus assumed
SMILES: CC[C@H](C)[C@H](NC(=O)[C@H](C)NC(=O)CNC(=O)[C@H](Cc1ccccc1)NC(=O)[C@H](CC(N)=O)NC(=O)[C@@H]1CCCN1C(=O)[C@H](CO)NC(=O)[C@H](CO)NC(=O)[C@H](Cc1c[nH]cn1)NC(=O)[C@H](CCCNC(=N)N)NC(=O)[C@H](CC(C)C)NC(=O)[C@H](Cc1ccccc1)NC(=O)[C@H](CCC(=O)O)NC(=O)[C@H](C)NC(=O)[C@H](CC(C)C)NC(=O)[C@H](CCCNC(=N)N)NC(=O)[C@H](CCC(N)=O)NC(=O)[C@@H](NC(=O)[C@H](C)NC(=O)[C@@H]1CSSC[C@H](NC(=O)[C@@H](N)CCCCNC(=O)CC[C@H](NC(=O)CC[C@H](NC(=O)CCCCCCCCCCCCCCCCCCC(=O)O)C(=O)O)C(=O)O)C(=O)N[C@@H](CC(N)=O)C(=O)N[C@@H]([C@@H](C)O)C(=O)N[C@@H](C)C(=O)N[C@@H]([C@@H](C)O)C(=O)N1)[C@@H](C)O)C(=O)N1CCC[C@H]1C(=O)N[C@@H](CO)C(=O)N[C@@H](CO)C(=O)N[C@H](C(=O)N[C@@H](CC(N)=O)C(=O)N[C@H](C(=O)NCC(=O)N[C@@H](CCCNC(=N)N)C(=O)N[C@@H](CCC(=O)O)C(=O)N[C@H](C(=O)N[C@@H](Cc1ccc(O)cc1)C(N)=O)[C@@H](C)O)C(C)C)[C@@H](C)O
IC50 [1]: 0.957 nM
hAmylin-R funct. EC50 [2]: 0.703 nM
Ratio hCT/hAmylin funct. [3]: 10.6
hCTR funct. EC50 [3]: 7.43 nM

Stronger by IC50 [1], values ahead:

IC50 [1]: 0.214 nM
hAmylin-R funct. EC50 [2]: 0.105 nM
Ratio hCT/hAmylin funct. [3]: 0.9
hCTR funct. EC50 [3]: 0.09 nM
B4: N^ε1-[(4S)-4-carboxy-4-(19-carboxynonadecanoylamino)butanoyl]-[Glu14,Arg17,Pro21,Pro27,Pro34,Pro37]-h-amylin (peptide)
peptide: K([γGlu-C20 diacid])CNTATCATQRLAEFLRHSSPNFGAIPSSTNVGPNTP-NH2
modifications: disulfide 2-7; N-terminus assumed
SMILES: CC[C@H](C)[C@H](NC(=O)[C@H](C)NC(=O)CNC(=O)[C@H](Cc1ccccc1)NC(=O)[C@H](CC(N)=O)NC(=O)[C@@H]1CCCN1C(=O)[C@H](CO)NC(=O)[C@H](CO)NC(=O)[C@H](Cc1c[nH]cn1)NC(=O)[C@H](CCCNC(=N)N)NC(=O)[C@H](CC(C)C)NC(=O)[C@H](Cc1ccccc1)NC(=O)[C@H](CCC(=O)O)NC(=O)[C@H](C)NC(=O)[C@H](CC(C)C)NC(=O)[C@H](CCCNC(=N)N)NC(=O)[C@H](CCC(N)=O)NC(=O)[C@@H](NC(=O)[C@H](C)NC(=O)[C@@H]1CSSC[C@H](NC(=O)[C@@H](N)CCCCNC(=O)CC[C@H](NC(=O)CCCCCCCCCCCCCCCCCCC(=O)O)C(=O)O)C(=O)N[C@@H](CC(N)=O)C(=O)N[C@@H]([C@@H](C)O)C(=O)N[C@@H](C)C(=O)N[C@@H]([C@@H](C)O)C(=O)N1)[C@@H](C)O)C(=O)N1CCC[C@H]1C(=O)N[C@@H](CO)C(=O)N[C@@H](CO)C(=O)N[C@H](C(=O)N[C@@H](CC(N)=O)C(=O)N[C@H](C(=O)NCC(=O)N1CCC[C@H]1C(=O)N[C@@H](CC(N)=O)C(=O)N[C@H](C(=O)N1CCC[C@H]1C(N)=O)[C@@H](C)O)C(C)C)[C@@H](C)O

IC50 [1]: 0.131 nM
hAmylin-R funct. EC50 [2]: 0.052 nM
Ratio hCT/hAmylin funct. [3]: 0.8
hCTR funct. EC50 [3]: 0.04 nM
B3: N^ε1-[(4S)-4-carboxy-4-(19-carboxynonadecanoylamino)butanoyl]-[His14,Arg17,Pro21,Pro27,Pro34,Pro37]-h-amylin (peptide)
peptide: K([γGlu-C20 diacid])CNTATCATQRLAHFLRHSSPNFGAIPSSTNVGPNTP-NH2
modifications: disulfide 2-7; N-terminus assumed
SMILES: CC[C@H](C)[C@H](NC(=O)[C@H](C)NC(=O)CNC(=O)[C@H](Cc1ccccc1)NC(=O)[C@H](CC(N)=O)NC(=O)[C@@H]1CCCN1C(=O)[C@H](CO)NC(=O)[C@H](CO)NC(=O)[C@H](Cc1c[nH]cn1)NC(=O)[C@H](CCCNC(=N)N)NC(=O)[C@H](CC(C)C)NC(=O)[C@H](Cc1ccccc1)NC(=O)[C@H](Cc1c[nH]cn1)NC(=O)[C@H](C)NC(=O)[C@H](CC(C)C)NC(=O)[C@H](CCCNC(=N)N)NC(=O)[C@H](CCC(N)=O)NC(=O)[C@@H](NC(=O)[C@H](C)NC(=O)[C@@H]1CSSC[C@H](NC(=O)[C@@H](N)CCCCNC(=O)CC[C@H](NC(=O)CCCCCCCCCCCCCCCCCCC(=O)O)C(=O)O)C(=O)N[C@@H](CC(N)=O)C(=O)N[C@@H]([C@@H](C)O)C(=O)N[C@@H](C)C(=O)N[C@@H]([C@@H](C)O)C(=O)N1)[C@@H](C)O)C(=O)N1CCC[C@H]1C(=O)N[C@@H](CO)C(=O)N[C@@H](CO)C(=O)N[C@H](C(=O)N[C@@H](CC(N)=O)C(=O)N[C@H](C(=O)NCC(=O)N1CCC[C@H]1C(=O)N[C@@H](CC(N)=O)C(=O)N[C@H](C(=O)N1CCC[C@H]1C(N)=O)[C@@H](C)O)C(C)C)[C@@H](C)O
